This passage reports Kd results from article PMC11342335.

Test in all cases: SPR; Biacore 8K, affinity determination of second-generation constructs; 30-100 RU of ABD035-containing constructs captured on immobilised HSA (CM5); 1-200 nM human sortilin injected 180 s at 30 µl/min, 25°C, PBST; 60 min dissociation; 1:1 Langmuir fit; apparent constants; n=3 technical replicates
(SPR reads the build-up and loss of mass on a sensor chip optically.)

The target in assay [1] is A3-ABD (His6-A3-G4S-ABD035).
The target of assay [2] is ABD-A3-(G4S)3-NTC3 (His6-ABD035-G4S-A3-(G4S)3-NTC3).
The target of assay [3] is ABD-A3-(G4S)3-PGRNC3 (His6-ABD035-G4S-A3-(G4S)3-PGRNC3) (human).
The target in assay [4] is ABD-A3-(G4S)3-PGRNC6* (His6-ABD035-G4S-A3-(G4S)3-PGRNC6*) (human) (UniProt P28799).

human sortilin (R&D Systems, 3154-ST), sequence (Q99523 78-755): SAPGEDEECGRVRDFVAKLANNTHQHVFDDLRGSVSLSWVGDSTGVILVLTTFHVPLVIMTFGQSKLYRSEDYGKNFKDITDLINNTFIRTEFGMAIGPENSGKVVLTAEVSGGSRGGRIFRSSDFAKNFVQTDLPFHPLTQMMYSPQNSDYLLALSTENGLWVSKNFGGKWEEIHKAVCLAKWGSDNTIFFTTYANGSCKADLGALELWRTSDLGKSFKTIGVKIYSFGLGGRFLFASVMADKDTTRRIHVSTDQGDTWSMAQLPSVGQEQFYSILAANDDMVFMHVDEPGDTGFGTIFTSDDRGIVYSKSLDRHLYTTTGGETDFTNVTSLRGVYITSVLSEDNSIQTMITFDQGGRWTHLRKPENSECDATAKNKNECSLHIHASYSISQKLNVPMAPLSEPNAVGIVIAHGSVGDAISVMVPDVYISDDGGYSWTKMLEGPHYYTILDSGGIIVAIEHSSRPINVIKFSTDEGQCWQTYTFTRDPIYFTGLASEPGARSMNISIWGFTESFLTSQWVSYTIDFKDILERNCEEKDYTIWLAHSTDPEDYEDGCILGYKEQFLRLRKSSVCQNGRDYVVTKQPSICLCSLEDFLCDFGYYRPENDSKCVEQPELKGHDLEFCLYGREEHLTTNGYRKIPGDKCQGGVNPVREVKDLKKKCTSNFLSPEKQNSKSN

For “human sortilin (R&D Systems, 3154-ST) (from UniProt Q99523 78-755) (receptor)”, the Kd was determined as 70.4 nM in assay [1], 0.303 nM in assay [2], 0.31 nM in assay [3] and 0.319 nM in assay [4].
